Results on one molecule are retold here after patent publication US20250059280A1 (AbbVie / Abbott, published 2025).

In assay [1] the target is T1, human programmed death receptor 1 (PD-1) (human, UniProt Q15116 25-288).
T1 construct: whole, on cells; Endogenous PD-1 on T cells of donors or study subjects; also called PD-1 receptor
Briefly: in vitro PD-1 receptor saturation on CD8+ T cells, flow cytometry, whole blood, Emax model fit. In general terms: A flow cytometer gives signals particle by particle.

Assay [2] concerns the target T1, human programmed death receptor 1 (PD-1). Nature of the assay: ratio of in vitro PD-1 receptor saturation EC50 values on CD8+ T cells, reference mAb2.

One may read the EC95 as the concentration needed for an effect of 95%. Read a low EC95 as greater potency.

T1 sequence (Q15116 25-288): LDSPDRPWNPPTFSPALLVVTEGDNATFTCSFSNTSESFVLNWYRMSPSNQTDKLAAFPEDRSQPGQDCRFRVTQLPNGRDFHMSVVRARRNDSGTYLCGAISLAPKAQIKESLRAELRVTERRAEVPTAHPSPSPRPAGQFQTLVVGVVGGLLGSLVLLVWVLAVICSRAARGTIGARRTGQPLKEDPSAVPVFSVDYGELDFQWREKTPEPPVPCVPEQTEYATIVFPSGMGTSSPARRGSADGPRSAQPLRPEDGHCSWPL

B1: cemiplimab (Catalog No. A2022, Selleckchem) (antibody, V domains shown)
VH: EVQLLESGGVLVQPGGSLRLSCAASGFTFSNFGMTWVRQAPGKGLEWVSGISGGGRDTYFADSVKGRFTISRDNSKNTLYLQMNSLKGEDTAVYYCVKWGNIYFDYWGQGTLVTVSS
VL: DIQMTQSPSSLSASVGDSITITCRASLSINTFLNWYQQKPGKAPNLLIYAASSLHGGVPSRFSGSGSGTDFTLTIRTLQPEDFATYYCQQSSNTPFTFGPGTVVDFR
With B1, in assay [1], the EC95 was 0.366 µg/mL. For the same molecule, in assay [2], the “Scaling Factor (ratio of EC50 of PD-1 saturation to the EC50 of mAb2)” value worked out at 2.67.
